According to the supplement of paper PMC9170038:

Assays:
MS2 coat protein [1] = experiment: apparent KD of MS2 coat protein, switch OFF state (with FMN for OFF switches, without FMN for ON switches); designed switch direction (-1 OFF switch, 1 ON switch): -1; higher = weaker reporter binding; conditions: FMN input: 0 or 200 uM; Eterna round: R93 (includes R88 designs)
Procedure, shortened: (§1)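 Designed RNA switches were transcribed on-chip from Illumina sequencing clusters. SNAP-549-labelled MS2 coat protein was titrated onto them in twofold steps from 0.7 or 1.5 nM to 3 µM in 100 mM Tris-HCl pH 7.5, 80 mM KCl, 4 mM MgCl2, either without or with constant ligand. Apparent KD reflects the per-design median of normalised cluster binding-curve fits.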

MS2 coat protein [2] = experiment: apparent KD of MS2 coat protein, switch ON state; designed switch direction (-1 OFF switch, 1 ON switch): -1; higher = weaker reporter binding; conditions: FMN input: 0 or 200 uM; Eterna round: R93 (includes R88 designs)
Procedure, shortened: as §1

Sequence	apparent KD of MS2 coat protein (MS2 coat protein [1]) [µM]	apparent KD of MS2 coat protein (MS2 coat protein [2]) [µM]
AGAAAGUGAGGAUAUUCGGAUAGGAAAACGAAAACCUAUCCGAAGAAGGCACAUGAGGAUCACCCAUGUAAAAA [Mat - Exaclusion 4 - Eli mod - D38]	0.0375	0.0332
AGAAAGUGAGGAUAUUCGGAUAGGAAAACGAAAACCUAUCCGAAGAAGGCACAUGAGGAUCACCCAUGUAAAGA [Mat - Exaclusion 4 - Eli mod - D39]	0.054	0.0396
AGAAUACAUGAGGAUCACCCAUGUGAGGAUAUGUAGAUAAAAAUAAAAUAAAAUAAAUACAGAAGGCACAAAAG [EX 1 May 19]	0.0597	0.0613
AGACAUACAGGAUAUACAUAGGAAAAAAAAAAAAAAAUUCAACAUGAGGAUCACCCAUGUAGAAGGGUAUGUCA [Ex2 Design 172: Random 2]	0.0699	0.0655
AGACAUACAGGAUAUACAUGGGAAAAAAAAAAAAAAAUUCUACAUGAGGAUCACCCAUGUAGAAGGGUAUGUCA [Ex2 Design 171: Random 1B]	0.0311	0.0811
AGAGACAGAGGAUAUACAUGAGGAUCACCCAUGUAAAAGAAAGAAAAGGGAAAGAAAAGUAGAAGGCUGAGAGA [Ruby 66]	0.0254	0.0236
AGAGAGAGAGGAUAUACAUGAGGAUCACCCAUGUAAAAGAAAGAAAAGGGAAAGAAAAGUAGAAGGCUCAGAGA [Ruby 65]	0.0535	0.0316
AGAUAGUCAGGAUAUACGAACAAGAAAAAAGACGAGAACGGACAUGAGGAUCACCCAUGUAGAAGGGACUAGAA [Diamond 11]	0.0286	0.045
AGCAAGUCAGGAUAUACGAAUAAGACAAAAGACGUGAAGGGACAUGAGGAUCACCCAUGUAGAAGGGACAAGCA [LROPPY Exclusion 2 - v01_mod Fisker]	0.0605	0.0809
AGCACGUCAGGAUAUACGAACACAAAGGGUAACAACAAGGGACAUGAGGAUCACCCAUGUAGAAGGGACAAGCA [Diamond 95]	0.0792	0.0735
AGCGAGUAAGGAUAUCGGAAAGGACACGAAAGUGACAAAGACGAGAAGGUACAUGAGGAUCACCCAUGUAAAAA [milkweed 25]	0.0178	0.0268
AGCUAGAGAGGAUAUACGUGAGUGAUAAAAGUCUGAUAACUACAUGAGGAUCACCCAUGUAGAAGGCUCUAGCA [Ex2 Design 166: Sub-opt 30]	0.0222	0.0691
AGCUAGUCAGGAUAUACGAAAAUGAACGAAGCUGAGAAGGGACAUGAGGAUCACCCAUGUAGAAGGGACUAGCA [Diamond 34]	0.137	0.0477
AGCUAGUCAGGAUAUACGAAAAUGAUAGAAGACGUAAGGGAACAUGAGGAUCACCCAUGUAGAAGGGACUAGCA [Diamond 47]	0.0631	0.0247
AGCUAGUCAGGAUAUACGAAAAUGUAAAAAGAAGUGAAGGGACAUGAGGAUCACCCAUGUAGAAGGGACUAGAA [74%, Web mod - With 4 less C's]	0.116	0.058
AGCUAGUCAGGAUAUACGAAAAUGUCAGAAGACGUAAGGGAACAUGAGGAUCACCCAUGUAGAAGGGACUAGCA [Diamond 41]	0.108	0.0307
AGCUAGUCAGGAUAUACGAACAAGUCAAAAGACGAGAACGGACAUGAGGAUCACCCAUGUAGAAGGGACUAGCA [Diamond 7]	0.0136	0.0161
AGCUAGUCAGGAUAUACGAACAUGUCAGGAGACGUGAAGGGACAUGAGGAUCACCCAUGUAGAAGGGACUAGCG [74%, Web mod - With 3 more G's]	0.128	0.0372
AGCUAGUCAGGAUAUACGAACAUGUCGAAAGACGUGAAGGGACAUGAGGAUCACCCAUGUAGAAGGGACUAGCA [Mat - Exclusion 2 - JL mod - D1]	0.12	0.0342
AGGAAACAUGAGGAUCACCCAUGUGAGGAUAUAGGAAAGAAAAGAAAAGAAAGAAGAAUUAGAAGGCACAAGAA [Djet]	0.0149	0.0205
AGGAAACAUGAGGAUCACCCAUGUGAGGAUAUGAACGAAAAUAAAUAAAAAUAAAAGUUCAGAAGGUACAAAAA [66%, Wbt, 5]	0.0368	0.0236
AGGAAACAUGAGGAUCACCCAUGUGAGGAUAUUCAAAAGAAAAGAAAAGAAAGAAGAAGAAGAAGGCACAAGAA [Khayu]	0.0335	0.0328
